Legend:
Assay type in all cases: in vivo
[1] = test system: Arabidopsis thaliana T1 plants; assay: Isoxaflutole tolerance of transgenic Arabidopsis thaliana T1 plants (spray, bleached leaf area grade, damage score); parameters: Scores (pesticide damage): scale not given here; conditions: spray, Arabidopsis thaliana T1 plants; for Classification and statistics of the grade of pesticide damage: Grade 0 (number of plants) / Classification and statistics of the grade of pesticide damage: Grade 1 (number of plants) / Classification and statistics of the grade of pesticide damage: Grade 2 (number of plants) / Classification and statistics of the grade of pesticide damage: Grade 3 (number of plants): 16 plants
How it was run: (§1)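 T1 transformants selected by glufosinate; 18-day-old plants, with empty-vector and wild-type controls, sprayed with topramezone (25–200 g ai/ha), isoxaflutole (35–280 g ai/ha) or mesotrione (52.5–420 g ai/ha), water as 0×. Bleached leaf area fraction scored at 7 DAT as grades 0–3.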

[2] = test system: Arabidopsis thaliana T1 plants; assay: Mesotrione tolerance of transgenic Arabidopsis thaliana T1 plants (spray, bleached leaf area grade, damage score); parameters: Scores: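 damage score 0-100 computed as Σ(N×S)/(T×M)×100 over grades 0-3 with higher meaning more damage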; conditions: Arabidopsis thaliana T1 plants; for Grade 0 (classification and statistics of the grade of pesticide damage; number of plants) / Grade 1 (classification and statistics of the grade of pesticide damage; number of plants) / Grade 2 (classification and statistics of the grade of pesticide damage; number of plants) / Grade 3 (classification and statistics of the grade of pesticide damage; number of plants): 16 plants
How it was run: as §1

[3] = test system: Arabidopsis thaliana T1 plants; assay: Topramezone tolerance of transgenic Arabidopsis thaliana T1 plants (spray, bleached leaf area grade, damage score); conditions: 7 DAT, Table 4; for Classification and statistics of the grade of pesticide damage: Grade 0 / Classification and statistics of the grade of pesticide damage: Grade 1 / Classification and statistics of the grade of pesticide damage: Grade 2 / Classification and statistics of the grade of pesticide damage: Grade 3: number of plants; for Scores: pesticide damage score 0-100
How it was run: as §1

[4] = isoxaflutole 35 g ai/ha (0.5x field concentration)
[5] = isoxaflutole 70 g ai/ha (1x field concentration)

B1: AtHPPDm-F383W-02: nucleotide sequence encoding Arabidopsis thaliana HPPD with F383W; vector DBN11732 (nucleic acid)
DNA: ATGGGACATCAGAATGCTGCTGTATCAGAAAATCAAAATCATGATGATGGAGCCGCCTCCTCACCAGGGTTTAAGTTGGTTGGGTTCTCCAAGTTTGTACGGAAGAACCCAAAATCCGACAAGTTCAAGGTTAAACGCTTCCACCACATTGAATTCTGGTGCGGCGACGCCACCAATGTTGCTCGGCGTTTTTCATGGGGTTTAGGCATGAGATTCTCAGCAAAGAGTGACCTGAGCACCGGCAACATGGTTCATGCTAGCTATCTCTTAACATCTGGAGATTTGAGGTTTCTTTTCACGGCGCCGTACTCACCATCACTCTCCGCCGGCGAGATCAAACCCACCACGACTGCAAGCATACCTTCATTTGATCATGGTAGTTGCAGATCCTTCTTCTCGTCGCACGGCCTAGGGGTGCGCGCGGTCGCCATCGAAGTTGAAGATGCAGAATCAGCGTTTAGTATCAGCGTGGCAAATGGAGCTATTCCTTCCTCCCCTCCAATTGTCCTCAATGAGGCTGTAACTATTGCCGAGGTGAAGTTGTATGGAGATGTTGTGCTGAGATATGTTTCTTACAAGGCAGAGGACACTGAGAAATCTGAATTTTTGCCTGGTTTTGAAAGGGTCGAGGATGCTTCAAGTTTTCCTCTTGATTACGGCATACGACGGTTGGATCACGCGGTTGGAAATGTACCAGAACTTGGGCCGGCGCTCACTTATGTGGCTGGTTTCACTGGATTCCATCAATTTGCTGAGTTCACAGCTGATGATGTTGGGACTGCTGAAAGTGGGTTGAACTCTGCAGTCCTCGCCTCTAATGATGAAATGGTGCTCCTCCCGATCAACGAGCCTGTGCATGGCACCAAAAGGAAATCACAAATACAGACATATCTTGAGCACAATGAAGGTGCAGGGCTTCAACATCTTGCACTGATGTCTGAAGACATTTTCCGTACGCTGAGAGAGATGAGGAAGAGAAGTAGTATTGGTGGATTTGACTTCATGCCTTCTCCCCCACCAACTTACTACCAGAACTTGAAGAAGAGGGTTGGTGATGTGCTATCTGATGACCAGATCAAGGAGTGTGAAGAATTGGGCATTCTTGTTGATCGGGACGACCAAGGAACATTACTGCAGATATTTACAAAACCACTTGGTGACCGCCCCACTATTTGGATTGAGATCATACAAAGAGTCGGCTGCATGATGAAGGATGAGGAAGGAAAAGCATATCAATCTGGTGGTTGTGGCGGCTTTGGGAAAGGAAACTTCTCTGAGCTGTTCAAATCCATCGAGGAGTATGAGAAGACCTTGGAGGCCAAGCAGCTCGTGGGTTGA
modifications: AtHPPDm-F383W-02 Nucleotide Sequence
notes: vector DBN11732
Resistance evaluation [1, 4]: Non-resistant
Scores (pesticide damage) [1, 4]: 77
Classification and statistics of the grade of pesticide damage: Grade 0 (number of plants) [1, 4]: 0
Classification and statistics of the grade of pesticide damage: Grade 1 (number of plants) [1, 4]: 2
Classification and statistics of the grade of pesticide damage: Grade 2 (number of plants) [1, 4]: 7
Classification and statistics of the grade of pesticide damage: Grade 3 (number of plants) [1, 4]: 7
Resistance evaluation [1, 5]: Non-resistant
Scores (pesticide damage) [1, 5]: 100
Classification and statistics of the grade of pesticide damage: Grade 0 (number of plants) [1, 5]: 0
Classification and statistics of the grade of pesticide damage: Grade 1 (number of plants) [1, 5]: 0
Classification and statistics of the grade of pesticide damage: Grade 2 (number of plants) [1, 5]: 0
Classification and statistics of the grade of pesticide damage: Grade 3 (number of plants) [1, 5]: 16
Resistance evaluation ([2]; mesotrione 52.5 g ai/ha): Non-resistant
Scores ([2]; mesotrione 52.5 g ai/ha): 100
Grade 0 (classification and statistics of the grade of pesticide damage; number of plants) ([2]; mesotrione 52.5 g ai/ha): 0
Grade 1 (classification and statistics of the grade of pesticide damage; number of plants) ([2]; mesotrione 52.5 g ai/ha): 0
Grade 2 (classification and statistics of the grade of pesticide damage; number of plants) ([2]; mesotrione 52.5 g ai/ha): 0
Grade 3 (classification and statistics of the grade of pesticide damage; number of plants) ([2]; mesotrione 52.5 g ai/ha): 16
Resistance evaluation ([2]; mesotrione 105 g ai/ha): Non-resistant
Scores ([2]; mesotrione 105 g ai/ha): 100
Grade 0 (classification and statistics of the grade of pesticide damage; number of plants) ([2]; mesotrione 105 g ai/ha): 0
Grade 1 (classification and statistics of the grade of pesticide damage; number of plants) ([2]; mesotrione 105 g ai/ha): 0
Grade 2 (classification and statistics of the grade of pesticide damage; number of plants) ([2]; mesotrione 105 g ai/ha): 0
Grade 3 (classification and statistics of the grade of pesticide damage; number of plants) ([2]; mesotrione 105 g ai/ha): 16
Classification and statistics of the grade of pesticide damage: Grade 0 ([3]; topramezone 25 g ai/ha (1×)): 0
Classification and statistics of the grade of pesticide damage: Grade 1 ([3]; topramezone 25 g ai/ha (1×)): 2
Classification and statistics of the grade of pesticide damage: Grade 2 ([3]; topramezone 25 g ai/ha (1×)): 5
Classification and statistics of the grade of pesticide damage: Grade 3 ([3]; topramezone 25 g ai/ha (1×)): 9
Classification and statistics of the grade of pesticide damage: Grade 0 ([3]; topramezone 100 g ai/ha (4×)): 0
Classification and statistics of the grade of pesticide damage: Grade 1 ([3]; topramezone 100 g ai/ha (4×)): 0
Classification and statistics of the grade of pesticide damage: Grade 2 ([3]; topramezone 100 g ai/ha (4×)): 2
Classification and statistics of the grade of pesticide damage: Grade 3 ([3]; topramezone 100 g ai/ha (4×)): 14
Scores ([3]; topramezone 25 g ai/ha (1×)): 81
Scores ([3]; topramezone 100 g ai/ha (4×)): 96
Resistance evaluation ([3]; topramezone 25 g ai/ha (1×)): non-resistant (non-resistant plants (scores 68-100))
Resistance evaluation ([3]; topramezone 100 g ai/ha (4×)): non-resistant (non-resistant plants (scores 68-100))

From patent US20250043302A1, “MUTATED HYDROXYPHENYLPYRUVATE DIOXYGENASE POLYPEPTIDE, AND CODING GENE AND USE THEREOF” (BEIJING DABEINONG BIOTECHNOLOGY CO., LTD., priority 2021, published 2025)
